According to US20060045881A1 (University of Texas, published 2006):

Columns and labels:
[1] = target: T1, HLA-A2.1 heavy chain with I125-labeled beta2-microglobulin (heterotrimer complex assay) (human, I125-labeled); test: dissociation of I125-labeled beta2-microglobulin from heavy chain/peptide/beta2m complex, HPLC gel filtration
T1 construct: Cell-free assay; also called heterotrimer complex of the HLA-A2.1 heavy chain, peptide, and beta2-microglobulin

[2] = target: T2, HLA-A2.1 (HLA-A*0201) on the surface of T2 cells (human)
T2 construct: also called surface HLA-A2.1 on T2

Row | Binder | T1/2 (binding half-life) [1] [min] | FI CCNE2144-152/FI PR1 (fluorescence ratio against PR1) [2] [ratio]
1 | RLFPDFFTRV [PR2 peptide (proteinase 3 derived, RLFPDFFTRV as printed in Table 4)] | 140 | 
2 | ILLDWLLEV (also called cyclin E2 peptide) [CCNE2 144-152 (cyclin E2 derived nonameric peptide)] |  | 1.19
3 | VLQELNVTV (Synthetic peptide, minimum 95% purity) [PR1 peptide (proteinase 3 aa 169-177, VLQELNVTV)] | 1460 | 
